For 3 molecules, binding result and Kd results are on record in paper PMC10442227, “Mechanistic and evolutionary insights into a type V-M CRISPR–Cas effector enzyme”.

Series [1] has as its target T1, Cas12m2 (UniProt PDB:8HIO_2 1-596).
T1 sequence: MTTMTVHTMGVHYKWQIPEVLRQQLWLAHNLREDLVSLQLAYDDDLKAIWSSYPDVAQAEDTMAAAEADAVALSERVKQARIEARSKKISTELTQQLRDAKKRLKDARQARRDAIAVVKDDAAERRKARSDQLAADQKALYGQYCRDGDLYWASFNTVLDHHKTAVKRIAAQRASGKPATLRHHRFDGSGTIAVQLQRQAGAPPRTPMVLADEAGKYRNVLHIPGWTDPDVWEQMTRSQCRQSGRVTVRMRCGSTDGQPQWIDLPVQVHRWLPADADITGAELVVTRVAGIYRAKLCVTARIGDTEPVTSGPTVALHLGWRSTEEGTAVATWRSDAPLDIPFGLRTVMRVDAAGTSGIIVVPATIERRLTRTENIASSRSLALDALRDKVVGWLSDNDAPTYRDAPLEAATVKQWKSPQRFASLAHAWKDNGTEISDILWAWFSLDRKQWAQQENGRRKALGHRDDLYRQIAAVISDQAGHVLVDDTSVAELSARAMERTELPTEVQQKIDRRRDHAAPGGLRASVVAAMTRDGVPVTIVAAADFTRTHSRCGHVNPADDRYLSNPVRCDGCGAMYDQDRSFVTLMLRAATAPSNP
In words: cryo-EM; full R-loop state (state I), 17-bp heteroduplex; Mg2+, Zn2+; SPR: 20 mM HEPES pH 7.8, 150 mM KCl, 10% glycerol, 5 mM MgCl2, 1 mM DTT, 0.05% Tween-20, 25 C; cryo-EM: 20 mM HEPES-NaOH pH 7.6, 50 mM NaCl, 2 mM MgCl2, 10 uM ZnCl2. The note with it: protein: recombinant; tags: N-terminal His6; crRNA guide pairs with S4 (17 bp, R-loop); S4/S5 blunt 36-bp duplex.

Series [2] deals with T2, Cas12m2 (binary complex) (UniProt PDB:8HIO_2 1-596).
T2 sequence: T1 sequence
In words: cryo-EM; binary complex; SPR: 20 mM HEPES pH 7.8, 150 mM KCl, 10% glycerol, 5 mM MgCl2, 1 mM DTT, 0.05% Tween-20, 25 C; cryo-EM: 20 mM HEPES-NaOH pH 7.6, 50 mM NaCl, 2 mM MgCl2, 10 uM ZnCl2. The note with it: protein: recombinant; tags: N-terminal His6; chain copies: 2; stem and pseudoknot scaffold.

The target in series [3] is T3, Cas12m2 (SPR prep) (UniProt PDB:8HIO_2 1-596).
T3 sequence: T1 sequence
In words: SPR; 5 mM Mg2+; two-state fit, 8-63 nM RNP; SPR: 20 mM HEPES pH 7.8, 150 mM KCl, 10% glycerol, 5 mM MgCl2, 1 mM DTT, 0.05% Tween-20, 25 C; cryo-EM: 20 mM HEPES-NaOH pH 7.6, 50 mM NaCl, 2 mM MgCl2, 10 uM ZnCl2. The note with it: protein: recombinant; tags: pML-1B vector, nickel-purified (His); label: 5'-biotin on DNA top strand; guide pairs with DNA top strand; DNA blunt 50-bp duplex. (Surface plasmon resonance follows binding to a sensor surface in real time, without labels.)

B1: crRNA (56 nt) + 36-bp target DNA (TTG PAM) (mixed)
RNA: GUGUCAUAGCCCAGCUUGGCGGGCGAAGGCCAAGACGGAGAUGAGGUGCGCGUGGC
DNA 1: GATGGTGCCACGCGCACCTCATCTCCCAAATAGACA
DNA 2: TGTCTATTTGGGAGATGAGGTGCGCGTGGCACCATC
B1: the binding result in series [1] is listed as “binds”.

B2: crRNA (56 nt) (structured_RNA)
RNA: B1 RNA
Turning to B2, the binding result in series [2] is recorded as “binds”.

B3: PAM-SCNR RNA + 50-bp target dsDNA (mixed)
RNA: GUGUCAUAGCCCAGCUUGGCGGGCGAAGGCCAAGACGUCGAGUGCAAAACCUUUCG
DNA 1: CAGCTATAGTTCTCGAAAGGTTTTGCACTCGACTAAAGGACTCTATGACC
DNA 2: GGTCATAGAGTCCTTTAGTCGAGTGCAAAACCTTTCGAGAACTATAGCTG
Turning to B3, in series [3], the Kd is roughly 2.7 nM.

As a reminder, the Kd is the constant that tells how readily two partners part at equilibrium.
